Results from paper doi:10.1101/359182, “Capturing auxin response factors syntax using DNA binding models”.

Biological target: T1, MP (ARF5/Monopteros) (UniProt P93024 1-902)
T1 sequence: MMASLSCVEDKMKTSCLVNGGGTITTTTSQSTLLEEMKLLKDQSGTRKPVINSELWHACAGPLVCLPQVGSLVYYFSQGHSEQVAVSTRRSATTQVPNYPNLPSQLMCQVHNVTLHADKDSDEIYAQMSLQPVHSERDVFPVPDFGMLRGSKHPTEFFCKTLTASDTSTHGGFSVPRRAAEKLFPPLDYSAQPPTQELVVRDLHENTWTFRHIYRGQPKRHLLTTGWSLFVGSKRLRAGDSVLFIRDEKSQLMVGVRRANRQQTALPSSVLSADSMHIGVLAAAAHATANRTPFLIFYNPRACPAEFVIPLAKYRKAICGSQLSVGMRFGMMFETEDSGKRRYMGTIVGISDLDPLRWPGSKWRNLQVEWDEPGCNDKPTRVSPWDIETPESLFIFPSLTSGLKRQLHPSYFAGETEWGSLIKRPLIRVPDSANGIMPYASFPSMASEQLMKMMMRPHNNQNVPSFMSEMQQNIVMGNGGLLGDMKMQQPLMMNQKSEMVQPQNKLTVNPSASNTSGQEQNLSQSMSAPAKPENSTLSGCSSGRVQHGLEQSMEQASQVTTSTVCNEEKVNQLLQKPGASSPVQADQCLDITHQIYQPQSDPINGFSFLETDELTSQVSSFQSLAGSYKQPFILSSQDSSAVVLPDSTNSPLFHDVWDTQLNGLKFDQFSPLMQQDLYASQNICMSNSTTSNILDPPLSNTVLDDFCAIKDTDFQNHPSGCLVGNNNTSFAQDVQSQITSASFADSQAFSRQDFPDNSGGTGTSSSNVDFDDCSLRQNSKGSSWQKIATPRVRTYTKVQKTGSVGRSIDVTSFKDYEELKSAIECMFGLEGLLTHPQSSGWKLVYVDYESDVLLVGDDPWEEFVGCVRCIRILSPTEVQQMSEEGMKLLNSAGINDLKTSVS
Experiment: EMSA; EMSA: 25 mM HEPES pH 7.4, 1 mM EDTA, 2 mM MgCl2, 100 mM KCl, 10% glycerol, 1 mM DTT, 0.5 mM PMSF, 0.1% Triton, 0.045 mg/ml salmon/herring DNA, 20 nM probe, protein 0-500 nM, 1 h at 4 C, 2% agarose in 0.5x TBE
Details: protein: recombinant; tags: N-terminal His-MBP-His; label: Cy5-dCTP, Klenow fill-in opposite 5' G; blunt after fill-in of 5' G overhang

B1: IR13 (dsDNA)
DNA 1: GATGCAGCCGACAAAACACATGATTTTGTCGGCTCACAT
DNA 2: ATGTGAGCCGACAAAATCATGTGTTTTGTCGGCTGCATC
binding result: binds
